Assays:
Assay in all cases: forward yeast two-hybrid, β-galactosidase overlay assay
[1] = biological target: T1, JNK1 point mutant Tyr-320-His, fused to the B42 activation domain (pJG4-5) (human, UniProt Q91Y86 1-384 (mouse entry))
T1 construct: Full-length JNK1 single point mutant; two-hybrid prey; also called Y320H; Y320→H320

[2] = biological target: T2, JNK1 point mutant Leu-131-Arg, fused to the B42 activation domain (pJG4-5) (human, UniProt Q91Y86 1-384 (mouse entry))
T2 construct: Full-length JNK1 single point mutant; two-hybrid prey; also called L131R; L131→R131

[3] = biological target: T3, JNK1 point mutant Arg-309-Trp, fused to the B42 activation domain (pJG4-5) (human, UniProt Q91Y86 1-384 (mouse entry))
T3 construct: Full-length JNK1 single point mutant; two-hybrid prey; also called R309W; R309→W309

Measured: binding result

B1: TI-JIP (Truncated Inhibitor of JNK based on JIP) fused to the LexA DNA-binding domain, from pGILDA-TI-JIP (peptide)
chain: MKALTARQQEVFDLIRDHISQTGMPPTRAEIAQRLGFRSPNAAEEHLKALARKGVIEIVSGASRGIRLLQEEEEGLPLVGRVAAGEPLLAQQHIEGHYQVDPSLFKPNADFLLRVSGMSMKDIGIMDGDLLAVHKTQDVRNGQVVVARIDDEVTVKRLKKQGNKVELLPENSEFKPIVVDLRQQSFTIEGLAVGVIRNGDWLRPKRPTTLNLF
notes: 11-residue peptide expressed in yeast as a C-terminal fusion with LexA (two-hybrid bait); also called bait
no binding: all assays above

From patent US20080044815A1 (published 2008)
